The values that follow come from article PMC13078783, “Kinesin-1 conformational dynamics are controlled by a cargo-sensitive TPR switch” (eLife, 2026).

One series deals with T1, KLC2 TPR domain.
T1 construct: kinesin light chain 2 (KLC2), TPR domain, residues A196-K480, in pET28His-Thrombin; source: E. coli BL21(DE3), purified (His-Trap, SEC)
The experiment in a line: fluorescence polarisation; TAMRA-conjugated peptide at 150 nM, increasing KLC1/2 TPR protein (typically 0–25 μM); 25 mM HEPES pH 7.4, 5 mM β-mercaptoethanol, 150 mM NaCl; room temperature; one-site specific binding model. The conditions noted are these: both partners purified.

Another series addresses T2, KLC1 TPR domain.
T2 construct: also called isolated TPR domains; KLC-1 TPR protein; source: E. coli BL21(DE3), purified (His-Trap, SEC)
The series is described as above. The conditions noted are these: both partners purified.

Series [1] concerns the molecule itself. The experiment in a line: AUC; sedimentation equilibrium, 20 °C, PBS, 100 μM total peptide, 44–60 krpm, single ideal species model.

No end group written: not given here.

B1: Eng-TDS (peptide)
chain: ENEALKDEVKELLQALEELAVNYDQLSQ-NH2
modifications: also: TAMRA-conjugated, position not given here
Usually Kd stands for the constant that tells how readily two partners part at equilibrium. The term stoichiometry N denotes the number of molecules, sites or subunits per partner or assembly. As to B1, the values for the dissociation constant Kd with KLC2 TPR domain and in the series with KLC1 TPR domain were 2.7 µM and ~25 µM, respectively. The “stoichiometry N” value in series [1] came to 2.
